The data set concerns the molecule itself. The data set is described as follows: SEC-MALS.

B1: GabR from Bacillus subtilis with C-terminal His6-tag (natural protein)
chain: MDITITLDRSEQADYIYQQIYQKLKKEILSRNLLPHSKVPSKRELAENLKVSVNSVNSAYQQLLAEGYLYAIERKGFFVEELDMFSAEEHPPFALPDDLKEIHIDQSDWISFSHMSSDTDHFPIKSWFRCEQKAASRSYRTLGDMSHPQGIYEVRAAITRLISLTRGVKCRPEQMIIGAGTQVLMQLLTELLPKEAVYAMEEPGYRRMYQLLKNAGKQVKTIMLDEKGMSIAEITRQQPDVLVTTPSHQFPSGTIMPVSRRIQLLNWAAEEPRRYIIEDDYDSEFTYDVDSIPALQSLDRFQNVIYMGTFSKSLLPGLRISYMVLPPELLRAYKQRGYDLQTCSSLTQLTLQEFIESGEYQKHIKKMKQHYKEKRERLITALEAEFSGEVTVKGANAGLHFVTEFDTRRTEQDILSHAAGLQLEIFGMSRFNLKENKRQTGRPALIIGFARLKEEDIQEGVQRLFKAVYGHKKIPVTGD
For B1, the “stoichiometry N” value is 2.

The values above are taken from PMC4756830 (Nucleic Acids Research, 2015).
